± gives the uncertainty stated by the source.
Assay: protein stability index of a GFP-peptide fusion (yeast GPS) (PSI 1-4); higher = more stable; sorted into four equal gates, so the index is relative within each strain
Outline: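 Tiled yeast protein peptides of 17 residues were each joined downstream of GFP, on plasmids that also express Cherry. The pooled library was maintained in yeast, and mid-log cultures in leucine-free medium were sorted into four equal gates on the GFP/Cherry ratio. Plasmids from every gate were amplified by PCR and sequenced on Illumina, with barcodes linking reads to strains. The protein stability index of a peptide is its gate-number-weighted read frequency summed over the gates.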

Sequence	protein stability index (doa10∆)	protein stability index (pdr5∆)	protein stability index (san1∆)	protein stability index (ubr1∆)
EYEEWQKSVSLLSSESN [YDL116W/NUP84]	2.93 ± 0.055	3.02 ± 0.077	2.84 ± 0.053	2.73 ± 0.054
IQQHARYDCSFCGKKTV [RPL43A]	2.71 ± 0.23	2.94 ± 0.1	2.81 ± 0.065	3.06 ± 0.066
ITGGIIEETSAAIKDLD [RRP43]	3.13 ± 0.2	–	–	–
ENSANSTVASALDTNGT [SIR4]	3.08 ± 0.097	3.18 ± 0.073	2.79 ± 0.09	2.86 ± 0.069
MFRNNYDGDTVTFSPTG [PRE5]	2.41 ± 0.12	2.84 ± 0.096	2.52 ± 0.11	3.18 ± 0.073
LNRLLRLIVDPNIADYI [PRP8]	1.83 ± 0.057	1.93 ± 0.05	1.64 ± 0.091	1.95 ± 0.044
ITSGGFLLKAYINVSRG [SRB5]	2.23 ± 0.17	2.48 ± 0.12	2.32 ± 0.15	2.53 ± 0.15
NLPKDKSGIPEFTPADP [SSN2]	2.99 ± 0.091	3.12 ± 0.075	3.03 ± 0.076	3.47 ± 0.056
NNSTGIANDNVITPHFI [SWI1]	2.69 ± 0.041	2.95 ± 0.042	2.86 ± 0.031	2.9 ± 0.033
ESNNKKYPIFTGESWVK [YDL088C/ASM4]	2.73 ± 0.062	2.59 ± 0.081	2.33 ± 0.083	2.74 ± 0.06
RQGLIHQGSGGSVMSAS [SMC3]	2.75 ± 0.091	3.14 ± 0.062	2.53 ± 0.086	2.69 ± 0.067
RHIKSKHEDLSLEQRQE [RPN4]	2.97 ± 0.069	3.05 ± 0.086	2.79 ± 0.096	3.03 ± 0.066
RQGRSNRRGMLALSGTS [SNF5]	2.89 ± 0.068	2.97 ± 0.057	2.81 ± 0.058	2.74 ± 0.051
VDLIEKFLRYNPLEKRD [RPB10]	2.91 ± 0.14	3.27 ± 0.12	3.23 ± 0.071	3.11 ± 0.041
IQSSLMTNLTYFLHLSV [YCS4]	2.15 ± 0.065	1.94 ± 0.049	1.89 ± 0.085	2.44 ± 0.058
DIPGVRFKVVKVSGVSL [RPS23A]	1.62 ± 0.084	1.11 ± 0.1	1.25 ± 0.29	1.06 ± 0.079
ANVEILAVEDKPSPIDS [CSL4]	2.98 ± 0.095	2.97 ± 0.13	2.57 ± 0.15	3.12 ± 0.063
DNEEWMNDVINTEEVNR [LIN1]	3.2 ± 0.071	3.46 ± 0.079	3.23 ± 0.044	3.39 ± 0.085
FYKLNMPDEFNTLYTAI [SRP72]	2.5 ± 0.05	2.64 ± 0.053	2.66 ± 0.034	2.65 ± 0.043
FTNPSVDIQIINQYQLL [SWI1]	1.44 ± 0.055	1.66 ± 0.07	1.43 ± 0.11	1.31 ± 0.063
NPVALEQKLVDLLKFEN [BRR2]	2.94 ± 0.17	3.23 ± 0.11	2.3 ± 0.12	2.47 ± 0.12
SYPVNGSQKTFEIDDEH [RPS6A]	2.98 ± 0.13	2.72 ± 0.12	2.81 ± 0.12	2.99 ± 0.12
APSIGRWYQLIATGCKD [YGL100W/SEH1]	1.52 ± 0.089	1.65 ± 0.068	1.64 ± 0.11	2.17 ± 0.071
DYDVSKKASEISVSSRS [SRP14]	3.52 ± 0.15	–	3.2 ± 0.15	2.98 ± 0.21
SQYSTMVNIGLHNLNEY [RGR1]	1.16 ± 0.14	2.09 ± 0.1	1.16 ± 0.09	1.25 ± 0.13
TKYFEPTSTENNKKVVG [ECM29]	2.87 ± 0.14	3.19 ± 0.17	2.82 ± 0.13	2.97 ± 0.062
KPFRQTKFKVRGSSSLY [RPL38]	2.83 ± 0.12	3.33 ± 0.071	3.17 ± 0.09	3 ± 0.085

Sequence	protein stability index (doa10∆)	protein stability index (pdr5∆)	protein stability index (san1∆)	protein stability index (ubr1∆)
RENVKSKDEPVSKAVES [SIR4]	3.58 ± 0.15	3.73 ± 0.12	2.93 ± 0.19	3.31 ± 0.18
VDIVNQWFLQYQNQFVE [YML103C/NUP188]	1.79 ± 0.055	2.1 ± 0.054	1.81 ± 0.065	2.29 ± 0.042
VVVIDGKGHLVGRLASV [RPL16A]	1.66 ± 0.065	1.64 ± 0.054	1.71 ± 0.1	1.97 ± 0.052
KKIMDETPSRLLLSPDQ [ITC1]	3.04 ± 0.056	3.37 ± 0.065	3.21 ± 0.078	3.33 ± 0.041
KEIYYTPDPSELAAKEE [FAS2]	2.631 ± 0.023	2.748 ± 0.023	2.601 ± 0.024	2.531 ± 0.017
PSEILHLILDKLNQKYD [GRR1]	3.14 ± 0.096	2.48 ± 0.068	2.54 ± 0.19	2.46 ± 0.061
DDEDEDDSDNVMSSDDE [PRE10]	3.17 ± 0.094	3.46 ± 0.12	3.44 ± 0.15	3.12 ± 0.17
TGEWFSSYEEFLERFDF [ITC1]	2.99 ± 0.098	1.99 ± 0.06	2.09 ± 0.12	2 ± 0.15
VMNTKLLQEGGSLSGNS [ESC2]	3.27 ± 0.14	3.44 ± 0.14	3.13 ± 0.099	3.07 ± 0.19
RNSVKLLSKLLLKHPFK [YCS4]	2.41 ± 0.042	2.1 ± 0.038	1.92 ± 0.056	2.07 ± 0.04
TFLVSNDDEVSQFCYVS [RPN14]	2 ± 0.13	2.55 ± 0.23	2.28 ± 0.13	–
NLWKNIFLSKENSAVAA [COR1]	1.85 ± 0.053	2.24 ± 0.059	2.01 ± 0.13	1.61 ± 0.063
RFVMPNQLLAALVAYTP [RRP6]	1.83 ± 0.041	1.84 ± 0.045	1.39 ± 0.07	1.71 ± 0.032
FNTPFANTGGQDKIELS [SNF2]	1.89 ± 0.18	–	1.55 ± 0.2	1.87 ± 0.2
KLINIKKFDISNDNLDL [MED1]	2.83 ± 0.2	3.01 ± 0.15	2.48 ± 0.15	2.83 ± 0.096
VFGFRANKMRQDRLSDL [SMC4]	–	–	–	2.74 ± 0.081
DLKSLNVRDDMKPSDNI [SSN2]	2.94 ± 0.22	2.59 ± 0.18	2.62 ± 0.16	2.57 ± 0.097
KTEPVGTGLQSYLEERE [RPC53]	3.4 ± 0.25	3.24 ± 0.13	3.21 ± 0.12	3.2 ± 0.11
NIDINNEDENIQLIKIL [YJL041W/NSP1]	2.52 ± 0.055	2.56 ± 0.071	2.99 ± 0.049	2.7 ± 0.042
EFQPSGNVTELYGTAIG [PRE5]	2.15 ± 0.069	2.8 ± 0.07	1.98 ± 0.067	1.57 ± 0.041
LLLITHHSWSQSDLEII [ARP9]	2.36 ± 0.08	1.68 ± 0.048	1.76 ± 0.075	1.87 ± 0.068
GKKWFEVSQFLIENGAS [NAS6]	1.91 ± 0.084	1.55 ± 0.061	1.4 ± 0.1	1.49 ± 0.074
KTRNPLTHSTPKNFGIG [RPL8A]	3.02 ± 0.084	2.9 ± 0.058	2.95 ± 0.046	3.07 ± 0.054
RGKDGKLHVAAKLPGHK [YGL100W/SEH1]	3.31 ± 0.14	3.13 ± 0.14	–	2.7 ± 0.16
EKTFLHLPCTIEAEEAE [RPN8]	1.56 ± 0.078	2.05 ± 0.071	2.48 ± 0.12	2.48 ± 0.07
VGLKNYDPQRDKRFSGS [RPL1A]	3.23 ± 0.082	3.48 ± 0.1	3 ± 0.096	3.25 ± 0.061

Reference: the supplement of paper PMC9732359
